System: Raf-1 serine 338/339
Test: In vitro kinase assay with Raf-1 peptide and Raf-CR3 as substrates
Assay type: biochemical, human
Settings: PAK3 immunoprecipitated from rat spleen lysates, FIG. 4b
Method: B. Kinase assays. Kinase samples were assessed for their ability to phosphorylate 500 μM Raf-1 peptide (33,[…]345) (SEQ ID NO:4) in the presence of 500 μMATP (containing 2 μCi [γ-^32P]-ATP at 30° C. for 10 minutes. Incubations were analyzed by P-81 phosphocellulose paper assay. Phosphorylation of serine 338/339 in Raf-CR3 was determined by similar incubations containing 1 μg of substrate at 30° C. for 30-60 minutes. Proteins were resolved by SDS-PAGE, transferred to Immobilon-P and the dried, Ponceau S-stained membranes were autoradiographed. Raf-1 kinase activity was measured by the coupled assay method using GST-Mek 1, GST-Erk1 and myelin basic protein by the method of D. Stokoe et al., Science, 264, 1463 (1994).
D. Expression of recombinant Raf-CR3 in E. Coli. DNA sequences encoding residues 307-648 of human c-Raf-1 were amplified by polymerase chain reaction using the 5′-primer […] (SEQ ID NO:5) and the 3′-primer […] (SEQ ID NO:6). The amplified DNA was purified, digested with EcoRI and XhoI and cloned into the Stratagene pCAL-n vector. The entire Raf-CR3 coding sequence was verified by termination reaction PCR DNA sequencing. Raf-CR3 D338E339 and A338A339 substitution mutants were generated by site-directed mutagenesis using the Promega Altered SitesTM in vitro mutagenesis system. Raf-CR3-calmodulin binding protein fusions were expressed in E. coli strain BL21 (pLysS). […]

B1: Immunoprecipitated PAK3: full-length PAK3 immunoprecipitated directly from rat spleen lysates with an anti-PAK3 antibody (protein)
chain: SDNGELEDKPPAPPVRMSSTIFSTGGKDPLSANHSLKPLPSVPEEKKPRNKIISIFSSTEKGSKKKEKERPEISPPSDFEHTIHVGFDAVTGEFTGMPEQWARLLQTSNITKLEQKKNPQAVLDVLKFYDSNTVKQKYLSFTPPEKDGFPSGTPALNTKGSETSAVVTEEDDDDEDAAPPVIAPRPDHTKSIYTRSVIDPIPAPVGDSNVDSGAKSSDKQKKKAKMTDEEIMEKLRTIVSIGDPKKKYTRYEKIGQGASGTVFTATDVALGQEVAIKQINLQKQPKKELIINEILVMKELKNPNIVNFLDSYLVGDELFVVMEYLAGGSLTDVVTETCMDEAQIAAVCRECLQALEFLHANQVIHRDIKSDNVLLGMEGSVKLTDFGFCAQITPEQSKRSTMVGTPYWMAPEVVTRKAYGPKVDIWSLGIMAIEMVEGEPPYLNENPLRALYLIATNGTPELQNPEKLSPIFRDFLNRCLEMDVEKRGSAKELLQHPFLKLAKPLSSLTPLILAAKEAMKSNR
B1 was tested, and the “phosphate incorporated into wild type Raf-CR3 versus Raf-CR3[D338E339] or Raf-CR3[A338A339] mutants” value was 4 fold.
